Experimental data published in publication PMC4443670, “The C-terminal region of the motor protein MCAK controls its structure and activity through a conformational switch” (eLife, 2015).
Numbering of substitutions follows the chain as printed. Numbers in names are those of the source. Where “and” joins values, the source holds several entries; their conditions need not be identical. Equal entries are not always repeated. Where two headings read alike, the source gives them in different places.

Columns and labels:
[1] = test system: taxol-stabilized microtubules; experiment: Microtubule cosedimentation assay, untreated microtubules; assay type: binding; conditions: for Kd: 50 nM, modified Hill equation, at least three independent experiments, read-out: apparent Kd for microtubules
Protocol: (§1) Full-length MCAK complex was diluted in S buffer (50 mM NaCl, 20 mM Hepes pH 7.0) to 50 nM, in absence of nucleotide to prevent MCAK-dependent microtubule depolymerisation. To assemble an MCAK motor-CT domain complex, 50 nM of the motor domain and 100 nM of the CT domain were used. Microtubule binding assays were performed as described ([Cheeseman et al., 2006]) using equal volumes of taxol-stabilized microtubules in BRB80 and MCAK in S buffer. MCAK was quantified using anti-MCAK antibody against the C terminus of MCAK (709[…]720), generated by GL Biochem (Shangai) Ltd (China) or anti-His antibody to probe for the motor domain alone (GE Healthcare Lifesciences, UK). The data from at least three independent experiments were fitted to a modified Hill equation to determine the apparent Kd.

[2] = Size-exclusion chromatography coupled to multi-angle light scattering (SEC-MALS); assay type: physicochemical; conditions: 100 mM HEPES pH 7.2, 150 mM NaCl
Protocol: Size-exclusion chromatography with on-line multi-angle light scattering (SEC-MALS) was performed using a GE Superdex 200 10/300 GL column on an ÄKTA FPLC system. MALS measurements were performed using a MiniDAWN in-line detector (Wyatt Technology, Santa Barbara, CA, USA). MCAK motor domain and C terminus were at 2 mg/ml in 100 mM HEPES, pH 7.2, 150 mM NaCl. Protein concentration was monitored using a UV monitor at 280 nm and a refractive index detector was set at 690 nm (Optilab DSP, Wyatt Technology, Santa Barbara, CA, USA). Data were analyzed using Astra software (Wyatt Technology, Santa Barbara, CA, USA) using the refractive index detector and a refractive index increment (dn/dc) value of 0.185 ml/g. Gel phase distribution coefficients (Kav) were determined from the equation Kav = (Ve − Vo)/(Vt − Vo), where Ve, Vo, and Vt represent the elution volume of the protein of interest, the column void volume and the total bed volume of the column, respectively.

[3] = Analytical size-exclusion chromatography (oligomeric state / size); assay type: physicochemical
Protocol: Protein expression was induced by addition of 0.5 mM IPTG to BL21(DE3) Codon plus cells transformed with respective constructs at OD600 of 0.7–0.8 for 16 hr at 18°C. Cells were lysed by sonication in lysis buffer (50 mM Hepes, pH 7.4, 200 mM NaCl, 1 mM MgCl2, 1 mM PMSF, 1 mg/ml DNaseI, 2 mg/ml lysozyme, 10 mM Imidazole) and clarified at 20,000 rpm for 1 hr at 4°C. His-tagged and GST-tagged proteins were subsequently purified using Ni-NTA–agarose beads and glutathione-sepharose beads, respectively (GE Healthcare Life Sciences, UK)) according to the manufacturer's guidelines. MCAK constructs containing the motor domain were eluted with elution buffer (50 mM Hepes, pH 7.4, 200 mM NaCl, 1 mM MgCl2, 1 mM ATP, and 300 mM imidazole). Cleavage of the GST tag was performed using the GST-3C protease overnight at 4°C. […] Protein concentrations were determined with a combination of Bradford protein assays and densitometry of Coomassie-stained gels relative to a BSA standard. […]

[4] = target: subtilisin-treated microtubules; experiment: Microtubule cosedimentation assay, subtilisin-treated microtubules; assay type: binding; conditions: for affinity for subtilisin-treated microtubules (β-tubulin C termini removed): 50 nM full-length protein, subtilisin 10 min
Protocol: as §1
Tubulin (5 mg/ml) was first polymerized into MTs in the presence of 1 mM GTP and gradual addition of 0.05 µM, 0.5 µM and 2 µM taxol for 1 hr at 37°C. The polymerized MTs were then treated with 100 μg/ml subtilisin and incubated at 37°C for 10 min to cleave β-tubulin tails and 120 min to cleave both α- and β-tubulin tails. Each reaction was then terminated with the addition of 3 mM PMSF. DM1A (Abcam, UK) and c-terminal β-tubulin (Sigma, UK) were used to detect the α- and β-tails, respectively by western blotting. The subtilisin treated microtubules were then pelleted at 28°C in a TLA100 rotor at 80,000 rpm for 10 min and the microtubule pellets were resuspended in warm BRB80 buffer to obtain subtilisin treated microtubules. The cosedimentation assays were then performed as described before.

[5] = test system: taxol-stabilized microtubules; experiment: Microtubule depolymerisation assay; assay type: biochemical
Protocol: Microtubule depolymerization assays were performed essentially as described previously ([Hertzer et al., 2006]). MCAK was diluted to 100 nM in S-buffer containing 1 mM DTT and 2 mM Mg-ATP. For depolymerization assays of the motor domain in presence of the CT domain after GST cleavage and removal, 50 nM of motor domain and 100 nM of the CT domain were used. The microtubule depolymerization assay was initiated by the addition of 2 μM taxol-stabilized microtubules to a reaction buffer containing MCAK. Reactions were incubated at room temperature with increasing times and followed by centrifugation to separate microtubules from free tubulin. The data are represented as mean ± SD from three independent experiments.

[6] = full-length protein, absence of nucleotide, untreated microtubules

B1: CTE712C-bound motor: motor domain covalently bound (disulphide) to CTE712C domain (protein)
chain 1: NPVNSVRRKSCLVKEVEKMKNKREEKKAQNSEMRMKRAQEYDSSFPNWEFARMIKEFRATLECHPLTMTDPIEEHRICVCVRKRPLNKQELAKKEIDVISIPSKCLLLVHEPKLKVDLTKYLENQAFCFDFAFDETASNEVVYRFTARPLVQTIFEGGKATCFAYGQTGSGKTHTMGGDLSGKAQNASKGIYAMASRDVFLLKNQPCYRKLGLEVYVTFFEIYNGKLFDLLNKKAKLRVLEDGKQQVQVVGLQEHLVNSADDVIKMIDMGSACRTSGQTFANSNSSRSHACFQIILRAKGRMHGKFSLVDLAGNERGADTSSADRQTRMEGAEINKSLLALKECIRALGQNKAHTPFRESKLTQVLRDSFIGENSRTCMIATISPGISSCEYTLNTLRYAD
chain 2: VIKALRLAMQLECQASRQISSKKRPQ
modifications: disulphide bridge of Cysteine 287 to Cysteine 712 of the CT_(E712C) domain | disulphide bridge of Cysteine 712 to Cysteine 287 of the motor domain; left off: His tag, end not stated, kept | GST, end n
detection of CT domain in microtubule-bound pellet / supernatant ([1]; western blot, 50 nM motor domain, with and without DTT): remained in the supernatant

B2: motor domain: motor region of MCAK along with the neck linker region (residues 181–583), His-tagged (protein, UniProt Q99661 181-583, looked up, fragment)
chain: SANPVNSVRRKSCLVKEVEKMKNKREEKKAQNSEMRMKRAQEYDSSFPNWEFARMIKEFRATLECHPLTMTDPIEEHRICVCVRKRPLNKQELAKKEIDVISIPSKCLLLVHEPKLKVDLTKYLENQAFCFDFAFDETASNEVVYRFTARPLVQTIFEGGKATCFAYGQTGSGKTHTMGGDLSGKAQNASKGIYAMASRDVFLLKNQPCYRKLGLEVYVTFFEIYNGKLFDLLNKKAKLRVLEDGKQQVQVVGLQEHLVNSADDVIKMIDMGSACRTSGQTFANSNSSRSHACFQIILRAKGRMHGKFSLVDLAGNERGADTSSADRQTRMEGAEINKSLLALKECIRALGQNKAHTPFRESKLTQVLRDSFIGENSRTCMIATISPGISSCEYTLNTLRYAD
modifications: His tag
notes: motor region of MCAK along with the neck linker region (residues 181–583), His-tagged
fraction monomeric ([2]; SEC-MALS, absence of CT domain, 2 mg/ml): over 90%
Monodispersity ([2]; SEC-MALS): 1.005
measured molecular weight (MW) ([2]; SEC-MALS, Superdex 200 10/300 GL, 2 mg/ml, unit printed kDa in text, kD in figure): ~45.3 kDa
Stoke Radius ([2]; from SEC calibration curve): 3.11 nm
apparent size (gel filtration) [3]: ~45 kDa
Kd ([4]; 50 nM motor domain in motor-CT domain complex, subtilisin-treated microtubules (10 or 120 min), absence of nucleotide): 200 nM
effect of α-tubulin tail removal on affinity for microtubules lacking β-tubulin tail ([4]; 50 nM motor domain, subtilisin 120 vs 10 min): did not further modify the affinity
microtubule depolymerase activity of motor with CT domain, with and without DTT ([5]; 50 nM motor domain, 100 nM CT domain, 2 μM taxol-stabilized microtubules): could depolymerize microtubules
Kd ([1]; motor domain alone, absence of nucleotide): 640 nM

B3: MCAKS715E: full-length MCAK S715E in which the CT domain cannot bind to the motor domains (protein)
chain: MAMDSSLQARLFPGLAIKIQRSNGLIHSANVRTVNLEKSCVSVEWAEGGATKGKEIDFDDVAAINPELLQLLPLHPKDNLPLQENVTIQKQKRRSVNSKIPAPKESLRSRSTRMSTVSELRITAQENDMEVELPAAANSRKQFSVPPAPTRPSCPAVAEIPLRMVSEEMEEQVHSIRGSSSANPVNSVRRKSCLVKEVEKMKNKREEKKAQNSEMRMKRAQEYDSSFPNWEFARMIKEFRATLECHPLTMTDPIEEHRICVCVRKRPLNKQELAKKEIDVISIPSKCLLLVHEPKLKVDLTKYLENQAFCFDFAFDETASNEVVYRFTARPLVQTIFEGGKATCFAYGQTGSGKTHTMGGDLSGKAQNASKGIYAMASRDVFLLKNQPCYRKLGLEVYVTFFEIYNGKLFDLLNKKAKLRVLEDGKQQVQVVGLQEHLVNSADDVIKMIDMGSACRTSGQTFANSNSSRSHACFQIILRAKGRMHGKFSLVDLAGNERGADTSSADRQTRMEGAEINKSLLALKECIRALGQNKAHTPFRESKLTQVLRDSFIGENSRTCMIATISPGISSCEYTLNTLRYADRVKELSPHSGPSGEQLIQMETEEMEACSNGALIPGNLSKEEEELSSQMSSFNEAMTQIRELEEKAMEELKEIIQQGPDWLELSEMTEQPDYDLETFVNKAESALAQQAKHFSALRDVIKALRLAMQLEEQAERQISSKKRPQ
modifications: left off: His tag, end not stated, state not stated
affinity for subtilisin-treated microtubules (β-tubulin C termini removed) ([4]; absence of nucleotide): remained comparably high
microtubule depolymerase activity, full-length ([5]; 100 nM protein, 2 μM microtubules, 1 mM DTT, 2 mM Mg-ATP, room temperature, three experiments): appeared similar to wild type MCAK
Kd [1, 6]: ~200 nM and 200 nM

B4: MCAK: full-length wild type MCAK, kinesin-13 microtubule depolymerase (protein)
chain: B3 chain with E715S
modifications: left off: His tag, end not stated, state not stated
notes: full-length wild type MCAK, kinesin-13 microtubule depolymerase
affinity for subtilisin-treated microtubules (β-tubulin C termini removed) ([4]; absence of nucleotide): increased the affinity
Kd [1, 6]: ~1500 nM and 1500 nM

B5: MCAKE712C: full-length MCAK with Glu712 mutated to cysteine (protein)
chain: B3 chain with E712C, E715S
modifications: left off: His tag, end not stated, state not stated
notes: full-length MCAK with Glu712 mutated to cysteine
gel filtration profile [3]: eluted as one complex, of similar size to MCAK
microtubule binding, absence of DTT (oxidizing) ([1]; full-length protein 50 nM, absence of DTT and nucleotide): the affinity of MCAKE712C for microtubules was reduced and a fraction of MCAKE712C did not bind microtubules, even at saturating microtubule concentrations
microtubule binding, presence of DTT ([1]; full-length protein 50 nM, with DTT, absence of nucleotide): bound to microtubules similarly to wild type full-length MCAK
